Experimental data reported in IntAct's records for PubMed 28348268.

B1: HLA class I histocompatibility antigen, alpha chain G (Homo sapiens), P17693-2 (parent)
chain: MVVMAPRTLFLLLSGALTLTETWAGSHSMRYFSAAVSRPGRGEPRFIAMGYVDDTQFVRFDSDSACPRMEPRAPWVEQEGPEYWEEETRNTKAHAQTDRMNLQTLRGYYNQSEANPPKTHVTHHPVFDYEATLRCWALGFYPAEIILTWQRDGEDQTQDVELVETRPAGDGTFQKWAAVVVPSGEEQRYTCHVQHEGLPEPLMLRWKQSSLPTIPIMGIVAGLVVLAAVVTGAAVAAVLWRKKSSD

Variants of: B1
Conditions: with lirb2_human LILRB2, Q8N423
Chain of lirb2_human LILRB2, Q8N423 (Q8N423 whole entry): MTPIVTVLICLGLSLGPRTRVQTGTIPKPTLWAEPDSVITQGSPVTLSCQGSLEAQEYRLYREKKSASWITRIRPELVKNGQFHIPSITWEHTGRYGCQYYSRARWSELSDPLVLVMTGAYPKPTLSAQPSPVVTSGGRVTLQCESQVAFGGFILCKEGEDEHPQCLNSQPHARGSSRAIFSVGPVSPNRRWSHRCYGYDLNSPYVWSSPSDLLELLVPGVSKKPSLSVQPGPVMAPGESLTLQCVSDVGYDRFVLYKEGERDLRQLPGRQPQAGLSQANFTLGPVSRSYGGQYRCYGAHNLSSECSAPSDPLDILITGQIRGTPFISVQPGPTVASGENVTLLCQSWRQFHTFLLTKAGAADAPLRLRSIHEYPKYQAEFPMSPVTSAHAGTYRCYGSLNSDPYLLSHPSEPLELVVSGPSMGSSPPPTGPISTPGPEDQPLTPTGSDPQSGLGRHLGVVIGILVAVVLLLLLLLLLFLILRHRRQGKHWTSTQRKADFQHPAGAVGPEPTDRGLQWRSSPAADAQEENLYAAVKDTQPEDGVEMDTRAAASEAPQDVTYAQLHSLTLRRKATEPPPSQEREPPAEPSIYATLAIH

Row | Variant | effect of a mutation on the interaction
1 | MVVMAPRTLFLLLSGALTLTETWAGSHSMRYFSAAVSRPGRGEPRFIAMGYVDDTQFVRFDSDSASPRMEPRAPWVEQEGPEYWEEETRNTKAHAQTDRMNLQTLRGYYNQSEANPPKTHVTHHPVFDYEATLRCWALGFYPAEIILTWQRDGEDQTQDVELVETRPAGDGTFQKWAAVVVPSGEEQRYTCHVQHEGLPEPLMLRWKQSSLPTIPIMGIVAGLVVLAAVVTGAAVAAVLWRKKSSD [C66S] | with no effect
